Source: article PMC9241813, “SGK1, a Serine/Threonine Kinase, Inhibits Prototype Foamy Virus Replication” (Microbiology Spectrum, 2022)

Molecular target: the molecule itself
Test: cross-linking; HEK293T cells transfected with Flag-Tas and empty vector or HA-SGK1; lysate supernatant incubated with cross-linking buffer at room temperature for 30 min; Western blot

B1: prototype foamy virus Tas protein (Flag-Tas) (natural protein)
chain: MDSYEKEESVASTSGIQDLQTLSELVGPENAGEGELTIAEEPEENPRRPRRYTKREVKCVSYHAYKEIEDKHPQHIKLQDWIPTPEEMSKSLCKRLILCGLYSAEKASEILRMPFTVSWEQSDTDPDCFIVSYTCIFCDAVIHDPMPIRWDPEVGIWVKYKPLRGIVGSAVFIMHKHQRNCSLVKPSTSCSEGPKPRPRHDPVLRCDMFEKHHKPRQKRPRRRSIDNESCASSSDTMANEPGSLCTNPLWNPGPLLSGLLEESSNLPNLEVHMSGGPFWEEVYGDSILGPPSGSGEHSVL
notes: also called PFV Tas; Myc-Tas; source: HEK293T, transfected, in lysate
- stoichiometry N: 2
